Experimental data: article PMC4497479, “Molecular characterization of an MYB transcription factor from a succulent halophyte involved in stress tolerance”

B1: RD22 (dsDNA)
DNA 1: CTTCTAACCACTACGTGCCTTCTGCTCCTTCTGC
DNA 2: GCAGAAGGAGCAGAAGGCACGTAGTGGTTAGAAG
B2: MBS-1 (dsDNA)
DNA 1: CGAGACACCCTAACTGACACACATTCT
DNA 2: AGAATGTGTGTCAGTTAGGGTGTCTCG
B3: RD29a DRE (dsDNA)
DNA 1: TAAAAGATATACTACCGACATGAGTTCCAAAAAGC
DNA 2: GCTTTTTGGAACTCATGTCGGTAGTATATCTTTTA

Molecular target: SbMYB44 (Salicornia brachiata, UniProt X2J380 1-269)
Assay: EMSA; 15 mM HEPES, 35 mM KCl, 4 mM EDTA (pH 8.0), 1 mM DTT, 1 mM MgCl2, 6% glycerol, room temperature 20 min; 80 ng probe, 40 ug protein in Methods (ng in Results/Fig. 5); SYBR Green stain
Conditions: protein: recombinant; tags: 6xHis (pET28a, EcoRI/XhoI); blunt

SbMYB44, sequence (X2J380 entry or part of it): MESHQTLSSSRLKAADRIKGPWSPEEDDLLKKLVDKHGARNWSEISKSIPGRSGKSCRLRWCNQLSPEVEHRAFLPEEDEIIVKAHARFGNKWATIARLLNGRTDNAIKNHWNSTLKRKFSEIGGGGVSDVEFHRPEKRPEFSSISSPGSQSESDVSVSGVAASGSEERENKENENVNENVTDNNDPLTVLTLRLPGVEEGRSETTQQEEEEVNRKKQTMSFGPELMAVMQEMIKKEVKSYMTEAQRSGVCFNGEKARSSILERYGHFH

| Binder | binding result |
| --- | --- |
| B1 | binds |
| B2 | binds |
| B3 | no binding |
